From patent publication US20260008815A1, “CYCLIC PEPTIDE OR SALT THEREOF, AND USES THEREOF” (FUJIFILM Corporation, priority 2023, published 2026)
Bridge positions count the residues as written; N and C are the ends. Ends that are not written are not given here. COCH2 = acetyl group that carries the bridge

B1: cyclic peptide SEQ ID NO: 49 (peptide)
peptide: SCQGNWISNTQFRYFIAYK(COCH2)T
modifications: thioether 2-19 (inferred); not fully specified (residue 1); printed as s-(C)-QGNWISNTQFRYFIAY-(K(acetyl))-T

Each binder was assayed against T1, Recombinant Human FGFR2 alpha (IIIc) Fc Chimera Protein, CF (R&D systems, 712-FR-050) (human, UniProt P21802 22-377) (assay: ELISA on plate-bound FGFR2-Fc).
T1 construct: bought; not shown: Fc part of the chimera
T1 sequence (P21802 22-377, change not shown): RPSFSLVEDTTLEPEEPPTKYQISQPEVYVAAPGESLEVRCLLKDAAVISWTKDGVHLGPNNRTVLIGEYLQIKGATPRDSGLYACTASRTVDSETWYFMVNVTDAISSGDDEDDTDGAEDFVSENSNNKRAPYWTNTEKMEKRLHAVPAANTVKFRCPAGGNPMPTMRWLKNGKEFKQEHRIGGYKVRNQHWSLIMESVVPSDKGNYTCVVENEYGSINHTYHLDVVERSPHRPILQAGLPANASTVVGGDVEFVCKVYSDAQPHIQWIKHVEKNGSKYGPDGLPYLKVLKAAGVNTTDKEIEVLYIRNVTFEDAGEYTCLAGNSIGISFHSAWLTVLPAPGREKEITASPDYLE
How it was run: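 Plate-immobilized FGFR2 alpha (IIIc)-Fc (5 ng/well) incubated with peptide 3 h at room temperature, then anti-Myc antibody 2 h and chemiluminescent ELISA substrate. Signal corrected by subtracting FGFR-free wells; binding affinity scored into categories from the dose-response.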

Compared with YCPPQLVYLYQYLYK(COCH2)L (thioether 2-15) [cyclic peptide SEQ ID NO: 380], QCPQNFINPVQWRYFQHWK(COCH2)N (thioether 2-19) [cyclic peptide SEQ ID NO: 93] is higher in “ELISA luminescence signal at 10 nmol/L peptide, relative to SEQ ID NO: 47 (=1)” value: 0.1 to 0.5 ratio for the first, at least 0.7 ratio for the second.

First: QCPQNFINPVQYRYFQHYK(COCH2)N (thioether 2-19) [cyclic peptide SEQ ID NO: 104]
Second: QCPQTFINPVQWRYFQHYK(COCH2)N (thioether 2-19) [cyclic peptide SEQ ID NO: 98]
The “ELISA luminescence signal at 10 nmol/L peptide, relative to SEQ ID NO: 47 (=1)” value of the first is higher: 0.5 to 0.7 ratio for the first, 0.1 to 0.5 ratio for the second.

First: QCPQNFINPVQFRYFQHYK(COCH2)N (thioether 2-19) [cyclic peptide SEQ ID NO: 103]
Second: QCPQEFINPVQWRYFQHYK(COCH2)N (thioether 2-19) [cyclic peptide SEQ ID NO: 99]
The “ELISA luminescence signal at 10 nmol/L peptide, relative to SEQ ID NO: 47 (=1)” value of the first is higher: 0.5 to 0.7 ratio for the first, 0.1 to 0.5 ratio for the second.

QCPQNFINPVQWRYFQHSK(COCH2)N (thioether 2-19) [cyclic peptide SEQ ID NO: 94] and QCPQNFINPVQSRYFQHYK(COCH2)N (thioether 2-19) [cyclic peptide SEQ ID NO: 105] fall in the same range of “ELISA luminescence signal at 10 nmol/L peptide, relative to SEQ ID NO: 47 (=1)” value: 0.1 to 0.5 ratio for the first, 0.1 to 0.5 ratio for the second.

QCPQYFINPVQWRYFQHYK(COCH2)N (thioether 2-19) [cyclic peptide SEQ ID NO: 96] and QCPQNFINPVQIRYFQHYK(COCH2)N (thioether 2-19) [cyclic peptide SEQ ID NO: 101] fall in the same range of “ELISA luminescence signal at 10 nmol/L peptide, relative to SEQ ID NO: 47 (=1)” value: 0.1 to 0.5 ratio for the first, 0.1 to 0.5 ratio for the second.

First: QK(COCH2)PQNFINPVQWRYFQHYCN (thioether 2-19) [cyclic peptide SEQ ID NO: 399]
Second: QCPQNFINPVQHRYFQHYK(COCH2)N (thioether 2-19) [cyclic peptide SEQ ID NO: 106]
The “ELISA luminescence signal at 10 nmol/L peptide, relative to SEQ ID NO: 47 (=1)” value of the first is lower: 0.1 to 0.5 ratio for the first, at least 0.7 ratio for the second.

QCPQSFINPVQWRYFQHYK(COCH2)N (thioether 2-19) [cyclic peptide SEQ ID NO: 97] and QCPQNFINPVQVRYFQHYK(COCH2)N (thioether 2-19) [cyclic peptide SEQ ID NO: 102] fall in the same range of “ELISA luminescence signal at 10 nmol/L peptide, relative to SEQ ID NO: 47 (=1)” value: 0.1 to 0.5 ratio for the first, 0.1 to 0.5 ratio for the second.

QCPQHFINPVQWRYFQHYK(COCH2)N (thioether 2-19) [cyclic peptide SEQ ID NO: 100] and QCPQGFINPVQWRYFQHYK(COCH2)N (thioether 2-19) [cyclic peptide SEQ ID NO: 95] fall in the same range of “ELISA luminescence signal at 10 nmol/L peptide, relative to SEQ ID NO: 47 (=1)” value: 0.1 to 0.5 ratio for the first, 0.1 to 0.5 ratio for the second.

LCYLYQYIYTAK(COCH2)F (thioether 2-12) [cyclic peptide SEQ ID NO: 363] and DCQLYYLYQYVLTK(COCH2)V (thioether 2-14) [cyclic peptide SEQ ID NO: 370] fall in the same range of “ELISA luminescence signal at 10 nmol/L peptide, relative to SEQ ID NO: 47 (=1)” value: 0.1 to 0.5 ratio for the first, 0.1 to 0.5 ratio for the second.

First: VCQEYYLYQYVYELK(COCH2)Y (thioether 2-15) [cyclic peptide SEQ ID NO: 381]
Second: VCHSNFLSAVQYAYFYQYK(COCH2)H (thioether 2-19 (inferred)) [cyclic peptide SEQ ID NO: 51]
The “ELISA luminescence signal at 10 nmol/L peptide, relative to SEQ ID NO: 47 (=1)” value of the first is lower: 0.1 to 0.5 ratio for the first, at least 0.7 ratio for the second.

DCQQYYLYLYLWK(COCH2)I (thioether 2-13) [cyclic peptide SEQ ID NO: 366] and LCYLYQYLYTTK(COCH2)Y (thioether 2-12) [cyclic peptide SEQ ID NO: 362] fall in the same range of “ELISA luminescence signal at 10 nmol/L peptide, relative to SEQ ID NO: 47 (=1)” value: 0.1 to 0.5 ratio for the first, 0.1 to 0.5 ratio for the second.

Compared with QCQLYYLYQYAYALK(COCH2)V (thioether 2-15) [cyclic peptide SEQ ID NO: 383], ACGQNFYHPVQFHYFIAYK(COCH2)Q (thioether 2-19 (inferred)) [cyclic peptide SEQ ID NO: 50] is higher in “ELISA luminescence signal at 10 nmol/L peptide, relative to SEQ ID NO: 47 (=1)” value: 0.1 to 0.5 ratio for the first, at least 0.7 ratio for the second.

QCLQYLYQYLFK(COCH2)I (thioether 2-12) [cyclic peptide SEQ ID NO: 364] and QCEQLKYLYQYVLKL (not fully specified; thioether ring (C)-(K(acetyl))) [cyclic peptide SEQ ID NO: 372] fall in the same range of “ELISA luminescence signal at 10 nmol/L peptide, relative to SEQ ID NO: 47 (=1)” value: 0.1 to 0.5 ratio for the first, 0.1 to 0.5 ratio for the second.

VCNENNWSRSQYHFFLQYK(COCH2)Y (thioether 2-19 (inferred)) [cyclic peptide SEQ ID NO: 52] and HCLHYLYQYLYTVK(COCH2)Y (thioether 2-14) [cyclic peptide SEQ ID NO: 377] fall in the same range of “ELISA luminescence signal at 10 nmol/L peptide, relative to SEQ ID NO: 47 (=1)” value: 0.1 to 0.5 ratio for the first, 0.1 to 0.5 ratio for the second.

DCLQFIYQYLYTVK(COCH2)I (thioether 2-14) [cyclic peptide SEQ ID NO: 375] and DCLQFLYLYLYQK(COCH2)T (thioether 2-13) [cyclic peptide SEQ ID NO: 369] fall in the same range of “ELISA luminescence signal at 10 nmol/L peptide, relative to SEQ ID NO: 47 (=1)” value: 0.1 to 0.5 ratio for the first, 0.1 to 0.5 ratio for the second.

QCYYLYWYLYK(COCH2)I (thioether 2-11) [cyclic peptide SEQ ID NO: 361] and QCLQDLYRYLYLLK(COCH2)A (thioether 2-14) [cyclic peptide SEQ ID NO: 374] fall in the same range of “ELISA luminescence signal at 10 nmol/L peptide, relative to SEQ ID NO: 47 (=1)” value: 0.1 to 0.5 ratio for the first, 0.1 to 0.5 ratio for the second.

QCIQDLYLYLYFLK(COCH2)T (thioether 2-14) [cyclic peptide SEQ ID NO: 376] and QCPRQLYYLYLYLSK(COCH2)I (thioether 2-15) [cyclic peptide SEQ ID NO: 378] fall in the same range of “ELISA luminescence signal at 10 nmol/L peptide, relative to SEQ ID NO: 47 (=1)” value: 0.1 to 0.5 ratio for the first, 0.1 to 0.5 ratio for the second.

Compared with HCQLEYLYTYVLK(COCH2)I (thioether 2-13) [cyclic peptide SEQ ID NO: 367], B1 is higher in “ELISA luminescence signal at 10 nmol/L peptide, relative to SEQ ID NO: 47 (=1)” value: 0.1 to 0.5 ratio for the first, at least 0.7 ratio for the second.

DCQLWYLYQYLIVK(COCH2)A (thioether 2-14) [cyclic peptide SEQ ID NO: 371] and QCYNYQYIYQYIYK(COCH2)I (thioether 2-14) [cyclic peptide SEQ ID NO: 373] fall in the same range of “ELISA luminescence signal at 10 nmol/L peptide, relative to SEQ ID NO: 47 (=1)” value: 0.1 to 0.5 ratio for the first, 0.1 to 0.5 ratio for the second.

First: PCDRQLYYLYQYIHK(COCH2)T (thioether 2-15) [cyclic peptide SEQ ID NO: 382]
Second: GCYWNEVQYYYLQQYK(COCH2)Q (thioether 2-16 (inferred)) [cyclic peptide SEQ ID NO: 48]
The “ELISA luminescence signal at 10 nmol/L peptide, relative to SEQ ID NO: 47 (=1)” value of the first is lower: 0.1 to 0.5 ratio for the first, at least 0.7 ratio for the second.

Compared with LCYLYQYLYQAK(COCH2)F (thioether 2-12) [cyclic peptide SEQ ID NO: 365], KCQNFINPVQWRYFQHYKN (not fully specified; thioether ring (C)-(K(acetyl))) [cyclic peptide SEQ ID NO: 68] is higher in “ELISA luminescence signal at 10 nmol/L peptide, relative to SEQ ID NO: 47 (=1)” value: 0.1 to 0.5 ratio for the first, at least 0.7 ratio for the second.

QCQLYYLYQYTIAIK(COCH2)T (thioether 2-15) [cyclic peptide SEQ ID NO: 384] and QCLIQDLYAYIFK(COCH2)L (thioether 2-13) [cyclic peptide SEQ ID NO: 368] fall in the same range of “ELISA luminescence signal at 10 nmol/L peptide, relative to SEQ ID NO: 47 (=1)” value: 0.1 to 0.5 ratio for the first, 0.1 to 0.5 ratio for the second.

With NCQLYYTYLYLHTLK(COCH2)F (thioether 2-15) [cyclic peptide SEQ ID NO: 379] the “ELISA luminescence signal at 10 nmol/L peptide, relative to SEQ ID NO: 47 (=1)” value was 0.1 to 0.5 ratio.
